Data from PMC8187593 (2021).

T1: cathepsin K mature active enzyme (Homo sapiens, UniProt P43235)
T1 chain: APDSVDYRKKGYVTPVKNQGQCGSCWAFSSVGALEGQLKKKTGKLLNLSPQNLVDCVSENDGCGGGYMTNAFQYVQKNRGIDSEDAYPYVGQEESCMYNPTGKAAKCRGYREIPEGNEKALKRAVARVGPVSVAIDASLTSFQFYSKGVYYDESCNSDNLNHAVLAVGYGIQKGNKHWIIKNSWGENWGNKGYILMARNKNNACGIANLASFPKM


Molecular target: T1, cathepsin K mature active enzyme
Assay: SPR

| Kd [nM] | Binder |
| --- | --- |
| 4.2 | vitronectin (pVN) (protein) DQESCKGRCTDGFIAERKCQCDELCSYYQSCCTDYVAECKPQVTRGDVFLQPDDEYRAYDYHEETRHNTSVQEEQRIPVLLAKTEETPVLKPEEEAPPPGPQTDDLGVPEEELCSGKPFDAFTNLKNGSVFAFRGLYCYELDEKAVRPGYPKLIQDVWGIKGPIDAAFTRINCQGKTYLFKGSQYWRFDDGVLDPNYPREISEGFKGIPDDVDAALALPAHSYSGRERVYFFKGKQYWEYVFQQQPSREECEGSSPSDVFAHFALMQRDSWEDIFRLLFWSHSFGGAIEPRVISQDWLGLPEQVDAAMAGQIYISGSALKPSQPKMTKSARRSGKRYRSRRGRGRGRGHSRSQKSHRQSRSTWLPWFSSEETGPGGYNYDDYKMDWLVPATCEPIQSVYFFSGEEYYRVNLRTQRVDTVTPPYPRSIAQYWLGCPVPDQK |
| 1.99 | vitronectin (hVN) (protein) DQESCKGRCTEGFNVDKKCQCDELCSYYQSCCTDYTAECKPQVTRGDVFTMPEDEYTVYDDGEEKNNATVHEQVGGPSLTSDLQAQSKGNPEQTPVLKPEEEAPAPEVGASKPEGIDSRPETLHPGRPQPPAEEELCSGKPFDAFTDLKNGSLFAFRGQYCYELDEKAVRPGYPKLIRDVWGIEGPIDAAFTRINCQGKTYLFKGSQYWRFEDGVLDPDYPRNISDGFDGIPDNVDAALALPAHSYSGRERVYFFKGKQYWEYQFQHQPSQEECEGSSLSAVFEHFAMMQRDSWEDIFELLFWGRTSAGTRQPQFISRDWHGVPGQVDAAMAGRIYISGMAPRPSLAKKQRFRHRNRKGYRSQRGHSRGRNQNSRRPSRATWLSLFSSEESNLGANNYDDYRMDWLVPATCEPIQSVFFFSGDKYYRVNLRTRRVDTVDPPYPRSIAQYWLGCPAPGHL |
